Reference: patent publication US20180016324A1 (Regeneron, published 2018)
Read-outs that look alike come from different tables or passages of the source.

Tests used:
[1] = biological target: T1, ZIKV (prM80E) with a C-terminal myc-myc-hexahistidine tag (Zika virus, UniProt A0A024B7W1 104-694); test: SPR, mAb captured, 25C
T1 construct: also called ZIKV (prM80E)-mmH; ZIKV-mmH

[2] = biological target: T1, ZIKV (prM80E) with a C-terminal …; test: SPR, mAb captured, 37C
[3] = biological target: T2, ZIKV prM/E polyprotein on virus-like particles (VLPs) from HEK293T/17 cells (Zika virus, UniProt A0A024B7W1 123-795); test: MSD ECL, VLPs on plate
T2 construct: also called ZIKV prM/E VLPs; Zika prM/E VLPs

[4] = biological target: T1, ZIKV (prM80E) with a C-terminal …; test: SPR, mAb captured, 37C, pH 5.5 chase
[5] = biological target: ZIKV envelope glycoprotein (E) of strain FLR (Colombia 2015) (Zika virus); test: cell-based or functional assay
[6] = biological target: ZIKV envelope glycoprotein (E) of strain PRVABC59 (Puerto Rico 2015) (Zika virus); test: cell-based or functional assay
[7] = biological target: T3, ZIKV envelope glycoprotein (E) of strain MR766 (Uganda 1947) (Zika virus, UniProt Q32ZE1 291-790); test: cell-based or functional assay
[8] = biological target: ZIKV E protein with escape mutation S302F (Zika virus); test: cell-based or functional assay
[9] = biological target: T1, ZIKV (prM80E) with a C-terminal …; test: SPR, mAb captured, 37C, pH 5.0 chase
[10] = biological target: T1, ZIKV (prM80E) with a C-terminal …; test: SPR, mAb captured, 37C, pH 6.0 chase
[11] = biological target: T1, ZIKV (prM80E) with a C-terminal …; test: SPR, mAb captured, 37C, pH 7.4
[12] = biological target: T1, ZIKV (prM80E) with a C-terminal …; test: SPR, mAb captured, 37C; remark: listed apart in the source
[13] = biological target: T1, ZIKV (prM80E) with a C-terminal …; test: SPR, mAb captured, 37C; remark: listed apart in the source
[14] = biological target: T2, ZIKV prM/E polyprotein on virus-like …; test: MSD ECL, VLPs on plate; high concentrations excluded from fit
[15] = biological target: ZIKV E protein with escape mutations T311I and K369E (Zika virus); test: cell-based or functional assay
[16] = biological target: T3, ZIKV envelope glycoprotein (E) of …; test: cell-based or functional assay; remark: listed apart in the source

B1: H4H25619P (antibody, V domains shown)
VH: QVQLVESGGGVVQPGRSLRLSCTASGFTFSTYGMHWVRHVPGKGLEWVAIVWYDGSDKSYAASVKGRFTISRDNSKNTLFLQMNSLRAEDTAVYYCARQGTYYYYGMDVWGQGTTVTVSS
VL: DIQMTQSPSSLSASVGDRVTITCRSSQTITNYLNWYQQRPGKAPKLLIYAASSLQSGVPSRFSGSGSGTDFTLTISSLQPEDFATYYCQQSYSTPPITFGQGTKLEIKR
[1]
  Kd: 3.14 nM
  koff: 0.000516 s⁻¹
  kon: 164000 M⁻¹ s⁻¹
  t½: 22.4 min
[2]
  t½ pH 7.4/t½ pH 6.0: 0.5
[3]
  EC50: 1.92 nM
[4]
  koff: 0.000953 s⁻¹
  t½: 12.1 min
[5]
  neutralization IC50, Vero cells: 1.26 nM
[6]
  neutralization IC50, Vero cells: 1.14 nM
[7]
  neutralization IC50, Vero cells: 0.171 nM
[8]
  IC50 (read off the curve): ~1 nM
[9]
  koff: 0.000548 s⁻¹
  t½: 21.1 min
[10]
  koff: 0.00102 s⁻¹
  t½: 11.3 min
[11]
  koff: 0.00193 s⁻¹
  t½: 6 min
[12]
  Kd: 5.59 nM
  koff: 0.00108 s⁻¹
  kon: 193000 M⁻¹ s⁻¹
  t½: 10.7 min
[13]
  t½ pH 7.4/t½ pH 5.0: 0.3
  t½ pH 7.4/t½ pH 5.5: 0.5

B2: H4H25704N (antibody, V domains shown)
VH: QVQLVESGGGVVQSGRSLRLSCAASGFTFIYYGMHWVRQAPGKGLEWVAVISYDGSDRYYADSVKGRFTISRDDSKNTLYLQMNSLRPEDTAVYYCAKDRGGRFDYWGQGTLVTVSS
VL: EIVLTQSPGTLSLSPGERATLSCRASQSVNNNYLAWYQQKPGQAPRLLIYGASSRATGIPDRFGGGGSGTDFTLTISRLEPEDFAVYYCQRYGNSPLTFGGGTKVEIK
[1]
  Kd: 0.27 nM
  koff: 0.000359 s⁻¹
  kon: 1.33e+06 M⁻¹ s⁻¹
  t½: 32.2 min
[2]
  t½ pH 7.4/t½ pH 6.0: 1.1
[4]
  koff: 0.00107 s⁻¹
  t½: 10.8 min
[5]
  neutralization IC50, Vero cells: 0.0758 nM
[6]
  neutralization IC50, Vero cells: 0.278 nM
[7]
  neutralization IC50, Vero cells: 0.046 nM
[14]
  EC50: 0.18 nM
[9]
  koff: 0.000959 s⁻¹
  t½: 12 min
[10]
  koff: 0.00131 s⁻¹
  t½: 8.85 min
[11]
  koff: 0.00121 s⁻¹
  t½: 9.56 min
[12]
  Kd: 0.621 nM
  koff: 0.0012 s⁻¹
  kon: 1.93e+06 M⁻¹ s⁻¹
  t½: 9.6 min
[13]
  t½ pH 7.4/t½ pH 5.0: 0.8
  t½ pH 7.4/t½ pH 5.5: 0.9

B3: H4H25703N (antibody, V domains shown)
VH: QVQLVESGGGVVQPGRSLRLSCAASGFTFNYYGMHWVRQAPGKGLEWVAVISYDGTNKYYADSVKGRFTTSRDNSKNTLYLQMNSLRAEDTALYYCARDRGGRFDYWGQGIQVTVSS
VL: EIVLTQSPDTLSLSPGERATLSCRASQSVSSNYLAWYQQKPGQAPRLLIYGASSRATGIPDRFSGSGSGTDFTLTISRLEPEDFAVYYCQRYGTSPLTFGGGTKVEIKR
[1]
  Kd: 0.542 nM
  koff: 0.000307 s⁻¹
  kon: 566000 M⁻¹ s⁻¹
  t½: 37.6 min
[2]
  t½ pH 7.4/t½ pH 6.0: 1.3
[3]
  EC50: 0.0846 nM
[4]
  koff: 0.00326 s⁻¹
  t½: 3.54 min
[5]
  neutralization IC50, Vero cells: 0.0619 nM
[6]
  neutralization IC50, Vero cells: 0.251 nM
[7]
  neutralization IC50, Vero cells: 0.0445 nM
[15]
  IC50 (read off the curve): ~1 nM
[9]
  koff: 0.0028 s⁻¹
  t½: 4.1 min
[10]
  koff: 0.00283 s⁻¹
  t½: 4.08 min
[11]
  koff: 0.00211 s⁻¹
  t½: 5.47 min
[12]
  Kd: 2.39 nM
  koff: 0.00177 s⁻¹
  kon: 738000 M⁻¹ s⁻¹
  t½: 6.5 min
[13]
  t½ pH 7.4/t½ pH 5.0: 1.3
  t½ pH 7.4/t½ pH 5.5: 1.5

B4: H2aM25710N (antibody, V domains shown)
VH: EVQLLESGGGLVQPGGSLRLSCAASGFTVSNNYMSWVRQAPGKGLEWVSVIYSGGRTNYGDSVKGRFTISRDNSKNTLYLQMNSLRAEDTAVYYCARENYDFWSGDPYGWDVWGQGTTVTVSS
VL: DIQMTQSPSSLSASVGDRVTITCRASQDISNYLAWFQQKPGKAPKSLIYGASSLQRGVPSKFRGSGSGTDFTLTISSLQPEDFASYYCQQYNSYPYTFGQGTKLEIK
[3]
  EC50: 0.244 nM
[16]
  neutralization IC50, Vero cells: 0.017 nM
